Laboratory results published in patent US20250325667A1 (published 2025).

T1: HPV E7 peptide on HLA-A*11:01 (human)
T1 peptide: IVCPICSQK

B1: TCR123 (TCR, V domains shown)
Valpha: SQKIEQNSEALNIQEGKTATLTCNYTNYSPAYLQWYRQDPGRGPVFLLLIRENEKEKRKERLKVTFDTTLKQSLFHITASQPADSATYLCALAGYQKVTFGTGTKLQVIP
Vbeta: SQTIHQWPATLVQPVGSPLSLECTVEGTSNPNLYWYRQAAGRGLQLLFYSVGIGQISSEVPQNLSASRPQDRQFILSSKKLLLSDSGFYLCAWSLRTSGSEQFFGPGTRLTVL
B2: TCR074 (TCR, V domains shown)
Valpha: AQKITQTQPGMFVQEKEAVTLDCTYDTSDPSYGLFWYKQPSSGEMIFLIYQGSYDQQNATEGRYSLNFQKARKSANLVISASQLGDSAMYFCAMRIDAGGTSYGKLTFGQGTILTVHP
Vbeta: DAMVIQNPRYQVTQFGKPVTLSCSQTLNHNVMYWYQQKSSQAPKLLFHYYDKDFNNEADTPDNFQSRRPNTSFCFLDIRSPGLGDAAMYLCATSRDRVNTGELFFGEGSRLTVL
B3: TCR095 (TCR, V domains shown)
Valpha: GIQVEQSPPDLILQEGANSTLRCNFSDSVNNLQWFHQNPWGQLINLFYIPSGTKQNGRLSATTVATERYSLLYISSSQTTDSGVYFCAVEGDNAGGTSYGKLTFGQGTILTVHP
Vbeta: EAQVTQNPRYLITVTGKKLTVTCSQNMNHEYMSWYRQDPGLGLRQIYYSMNVEVTDKGDVPEGYKVSRKEKRNFPLILESPSPNQTSLYFCASSWSTSYGYTFGSGTRLTIV

Target: T1, HPV E7 peptide on HLA-A*11:01
Assay: multimer staining

**Q.** Does B1 bind?
**A.** recognises

**Q.** Does B2 bind?
**A.** recognises

**Q.** Does B3 bind?
**A.** recognises
